{"source": "paper PMC6599224", "target": "T1, IscR-WT (Pseudomonas aeruginosa PAO1) (UniProt Q9HXI7)", "T1 sequence": "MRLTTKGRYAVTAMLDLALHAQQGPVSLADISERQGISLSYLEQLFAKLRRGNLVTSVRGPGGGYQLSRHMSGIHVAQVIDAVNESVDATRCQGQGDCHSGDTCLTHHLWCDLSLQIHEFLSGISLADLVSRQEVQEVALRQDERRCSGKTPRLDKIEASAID", "assay": "DNase I footprinting", "conditions": "EMSA: 20 mM Tris-HCl pH 8.0, 50 mM KCl, 4 mM MgCl2, 0.5 mM EDTA, 0.02 mg/ml BSA, 5 mM DTT, 10% glycerol, 200 ng poly(dI-dC), 3 fmol probe in 25 ul, 25 C …", "data": [{"sequence": "GCCTTTCTGCGGGAGCTGGCCATCGACGTTGACCGGGTTGCCCTTGAGAGTCACTTGAGCCATTGCGTTGATCCTTCTAGTCAGTGAGAAGCCGCCGGCCCTGTGGCCGGCGGCGGAAGCATTCGGGGCCGGCGACGATGCTAGCACGCTTTACCCGAGCGAAAACCTCGGGTTTGAGCATCGCCGTCCCCCGAGGCTCAACTCCTGGCCTTGGCGAAATACTCCCGGGTC (double strand) [tpx promoter]", "values": [{"measurement": "binding", "value": "binds"}]}]}
